According to paper PMC6715715 (Communications Biology, 2019):

T1: AtcC-6His (SO_1846) (Shewanella oneidensis MR-1, UniProt Q8EFW9 1-298)
T1 construct: AtcC (SO_1846) of Shewanella oneidensis MR-1, 34 kDa; pBad33-AtcC was made by moving the insert of pET-AtcC, so both give AtcC with a C-terminal 6-His tag; also called AtcC with a 6His-tag; not shown: His6, C-terminal, kept
T1 sequence (looked up): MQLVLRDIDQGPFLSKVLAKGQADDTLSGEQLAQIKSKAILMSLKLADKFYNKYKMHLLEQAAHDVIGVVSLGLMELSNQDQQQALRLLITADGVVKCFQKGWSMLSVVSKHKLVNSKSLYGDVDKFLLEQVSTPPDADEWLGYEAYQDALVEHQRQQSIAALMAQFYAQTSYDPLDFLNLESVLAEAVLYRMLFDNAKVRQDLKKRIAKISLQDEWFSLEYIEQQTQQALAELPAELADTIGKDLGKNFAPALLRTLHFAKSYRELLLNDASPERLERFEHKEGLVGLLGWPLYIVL

B1: AtcJ-6His (Adaptation to cold protein J, SO_1850) (natural protein, Shewanella oneidensis MR-1, UniProt Q8EFW5 1-94, looked up)
chain: MINHFSVLGIKPSAKEDDIKKAYRRLSNKYHPDKLLGASDEEKEQASQQLERVKKAYEVLSDPKLRNAFIRDFNNVIVTDPNSAMRELWDQFYP
notes: AtcJ (SO_1850) of Shewanella oneidensis MR-1, a 94-amino acid J-domain protein (J-domain 1-73 and a C-terminal extension of 21 amino acids); also called wild-type AtcJ; AtcJ-WT
B2: Strep-AtcB (natural protein, Shewanella oneidensis MR-1, UniProt Q8EFW7 1-252, looked up)
chain: MNTSLIEITVAEIKELADVEPKQASKRFELIATTMNDEQLVEVIEKMDIVTLTQINSHHDISCPSIMSELMTPEQIRDIVCQQPLYWEEKIKNNAEELIQHTFDFLTYLIRIQDSEEKQTAILECIAEDPAGLFYLSIPFIEMMLGEGHDDEDHINDYYDDEEDTDTIGYDSRVASEEAHSFSLDDPRSLMALIHELAPDVEKAIKNLLRNESSGWETIINKFVNELVIQAKEKNQVTDEYAEVDDMFSFLD
notes: AtcB (SO_1848) of Shewanella oneidensis MR-1, 29 kDa; also called AtcB with a Strep-tag; purified AtcB
B3: pep21, synthetic peptide corresponding to the last 21 amino acids of AtcJ (peptide)
peptide: NNVIVTDPNSAMRELWDQFYP
notes: last 21 amino acids of AtcJ (SO_1850) of Shewanella oneidensis (94 amino acids; N74 is the first residue of the extension); The methods sentence says 'last 21 amino acids of AtcC'; results and legends say AtcJ; also called the peptide

What was measured:
[1] = target: DnaK-6His from S. oneidensis (Shewanella oneidensis MR-1, UniProt Q8EHT7 1-639); experiment: cell-based or functional assay
DnaK-6His from S. oneidensis, sequence (Q8EHT7 whole entry): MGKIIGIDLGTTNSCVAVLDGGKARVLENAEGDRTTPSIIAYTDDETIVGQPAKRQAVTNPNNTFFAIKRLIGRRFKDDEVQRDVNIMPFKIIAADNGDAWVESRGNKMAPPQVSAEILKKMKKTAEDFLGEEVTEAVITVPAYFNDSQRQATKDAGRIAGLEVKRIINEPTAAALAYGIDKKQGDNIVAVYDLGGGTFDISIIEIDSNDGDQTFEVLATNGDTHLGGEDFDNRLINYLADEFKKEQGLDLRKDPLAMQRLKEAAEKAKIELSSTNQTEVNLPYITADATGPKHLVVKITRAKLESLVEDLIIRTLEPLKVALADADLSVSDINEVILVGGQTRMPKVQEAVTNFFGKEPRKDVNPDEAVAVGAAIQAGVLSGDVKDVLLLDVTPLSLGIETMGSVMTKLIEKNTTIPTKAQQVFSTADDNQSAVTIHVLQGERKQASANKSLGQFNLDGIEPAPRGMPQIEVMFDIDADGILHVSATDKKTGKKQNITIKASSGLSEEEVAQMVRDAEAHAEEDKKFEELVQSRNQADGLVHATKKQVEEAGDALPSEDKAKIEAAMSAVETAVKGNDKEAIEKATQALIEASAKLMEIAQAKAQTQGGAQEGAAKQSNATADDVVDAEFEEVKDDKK

AtcC-6His (SO_1846) [2] = target: T1, AtcC-6His (SO_1846); experiment: ITC; 25 °C, buffer B (50 mM Tris-HCl, 100 mM KCl, 10% glycerol, 1 mM DTT); 285 µM ligand titrated into 36 µM AtcC in the cell; one set of sites model; conditions: both partners purified
AtcC-6His (SO_1846) [3] = target: T1, AtcC-6His (SO_1846); experiment: pull-down; conditions: both partners purified

Row | Binder | stimulation of the ATPase activity of DnaK in the presence of GrpE (2 µM) from S. oneidensis [1] | Kd (AtcC-6His (SO_1846) [2]) | stoichiometry N (AtcC-6His (SO_1846) [2]) | binding result (AtcC-6His (SO_1846) [3])
1 | B1 | 2.7 fold | 7 ± 2 nM | 1 | 
2 | B2 |  |  |  | binds
3 | B3 |  | 80 ± 12 nM |  | 
